Experimental data as given in the supplement of paper PMC12764529.
± gives the half width of the 95% confidence interval.

What was measured:
[1] = folding stability dG unfold (combined trypsin and chymotrypsin); higher = more stable
Summary of the method: (§1)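 Unfolding free energy was derived, per protease or combined, by relating Bayesian-fitted K50 values from sequencing counts to a sequence-predicted unfolded-state K50 and a shared folded-state K50. The underlying digests exposed cysteine-free mini-proteins under 80 residues, in a PA-tagged cDNA display construct, to trypsin and chymotrypsin at 11 threefold-diluted concentrations and to a no-protease condition. A filter kept only designs with AlphaFold2 dimer inter-PAE above 15.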

[2] = folding stability dG unfold from chymotrypsin proteolysis; higher = more stable
Summary of the method: as §1

[3] = folding stability dG unfold from trypsin proteolysis; higher = more stable
Summary of the method: as §1

In the case of “SAGGSAGGSAGGKEITIMMPSPEAIKKLLPPGWKITNIEPIGRDPEDGYPYYMITFKPDSAGGSAGGSAGGS [r10_256_TrROS]”, the “folding stability dG unfold” value [1] is reported as 1.3 ± 0.057 kcal/mol, the “folding stability dG unfold” value [2] is reported as 1.11 ± 0.042 kcal/mol and the “folding stability dG unfold” value [3] is reported as 1.43 ± 0.018 kcal/mol.
With “SAGGNGRKKVKIDISIMIPIPPNDMPPEQRMKLAKELAERIARSLARKEGADPDKIDEVKVRFHIFPWSAGG [r13_5_TrROS]” the “folding stability dG unfold” value [1] was 2.44 ± 0.072 kcal/mol, the “folding stability dG unfold” value [2] was 2.65 ± 0.067 kcal/mol and the “folding stability dG unfold” value [3] was 2.03 ± 0.027 kcal/mol.
With “SAGGSALPPHAVRVLVVTATDTDPGAAAARIAEEFRRKYPNTRVLTRPFDVPPGRPAVVAVVYVDESAGGSA [r15_916_TrMRF]” the “folding stability dG unfold” value [1] was 2.08 ± 0.2 kcal/mol, the “folding stability dG unfold” value [2] was 2.54 ± 0.11 kcal/mol and the “folding stability dG unfold” value [3] was 1.15 ± 0.12 kcal/mol.
In the case of “SAGGSAGGSAGGSMIVEEDPVGPEKVTTVTLPEKDKLVTVTETFLPDGSVVTTTTPVPSSAGGSAGGSAGGS [r4_332_JUSTAS]”, the “folding stability dG unfold” value [1] is reported as 1.96 ± 0.13 kcal/mol, the “folding stability dG unfold” value [2] is reported as 2 ± 0.25 kcal/mol and the “folding stability dG unfold” value [3] is reported as 1.8 ± 0.17 kcal/mol.
In the case of “SAGGSAGGSAGGMLTAVFTTPGNVRRLVPFSSEEEARALAEAEGVEVEFLDPAEAARLLSAGGSAGGSAGGS [r10_66_JUSTAS]”, the “folding stability dG unfold” value [1] is reported as -0.476 ± 0.14 kcal/mol, the “folding stability dG unfold” value [2] is reported as -0.497 ± 0.25 kcal/mol and the “folding stability dG unfold” value [3] is reported as -0.569 ± 0.17 kcal/mol.
With “SAGGSAGGSAGGKRTLLIRVPPGASVEQVLEELKRLLPPGAKITVELDPETRTLRVTIDSAGGSAGGSAGGS [r10_163_TrROS_Hall]” the “folding stability dG unfold” value [1] was 3.89 ± 0.12 kcal/mol, the “folding stability dG unfold” value [2] was 4.12 ± 0.057 kcal/mol and the “folding stability dG unfold” value [3] was 3.28 ± 0.075 kcal/mol.
With “SAGGMVYRVKVKITFPDGKTYYIPFPNFKSFEEILNVLKKLGFENLENIPIEVIEIEPIPEVPEELLKSAGG [r13_493_TrMRF]” the “folding stability dG unfold” value [1] was 2.74 ± 0.16 kcal/mol, the “folding stability dG unfold” value [2] was 3.07 ± 0.11 kcal/mol and the “folding stability dG unfold” value [3] was 1.53 ± 0.066 kcal/mol.
For “SAGGSAGGSAGKIEIDPSKPALVRVRLVPENGIPREIVVEAGDLSKLLPENFKVLSIELGSAGGSAGGSAGG [r17_449_TrMRF]”, the “folding stability dG unfold” value [1] was 0.407 ± 0.067 kcal/mol, the “folding stability dG unfold” value [2] was 0.397 ± 0.06 kcal/mol and the “folding stability dG unfold” value [3] was 0.295 ± 0.09 kcal/mol.
For “SMKIPGMSAKEKLRKAIEALLEEAEKKGIKEITIKIYNKKTKKPIKEIKFKSKEELLKKIEEGDEVEIEFSA [r9_718_TrROS_Hall]”, the “folding stability dG unfold” value [1] was 1.83 ± 0.13 kcal/mol, the “folding stability dG unfold” value [2] was 1.71 ± 0.061 kcal/mol and the “folding stability dG unfold” value [3] was 2.1 ± 0.045 kcal/mol.
In the case of “SMPGSITVEIEVEEEEDPERGGRRIKKLLIKKVTYKDEKGNSSDEVANEIKNALKEKLEKEGKPAEIELTSA [r9_261_JUSTAS]”, the “folding stability dG unfold” value [1] is reported as 1.27 ± 0.37 kcal/mol, the “folding stability dG unfold” value [2] is reported as 1.11 ± 0.23 kcal/mol and the “folding stability dG unfold” value [3] is reported as 1.35 ± 0.081 kcal/mol.
With “SAGMKPGEVLTVEDIPPGALLRNPKGESLGPVVEVEVRALEDSVEAVVTFPDGSKATVTFPADDIVLDPSAG [r5_850_TrMRF]” the “folding stability dG unfold” value [1] was 0.987 ± 0.33 kcal/mol, the “folding stability dG unfold” value [2] was 0.991 ± 0.21 kcal/mol and the “folding stability dG unfold” value [3] was 1.05 ± 0.19 kcal/mol.
With “ADPDVKVEVEFEVLPDGRLRVTAVDPDTGVVVEVEAPVDGAGPVTVRVRVRVFDPETGEVSTFEAEFTLPLS [r1_45_TrMRF]” the “folding stability dG unfold” value [1] was 4.14 ± 0.17 kcal/mol, the “folding stability dG unfold” value [2] was 4.33 ± 0.15 kcal/mol and the “folding stability dG unfold” value [3] was 3.71 ± 0.12 kcal/mol.
In the case of “SMPIEVRVDLERLEDGTLLAVIEIRHPDVQVAEDAAIELARELFPEDVELRIETTPDGRVIAPILLPLPESA [r9_646_TrMRF]”, the “folding stability dG unfold” value [1] is reported as 2.58 ± 0.22 kcal/mol, the “folding stability dG unfold” value [2] is reported as 1.74 ± 0.17 kcal/mol and the “folding stability dG unfold” value [3] is reported as 3.14 ± 0.14 kcal/mol.
With “SAGGSAGGSAGTITILFKDPEDAIDRIKEFAQKEGYKVKIDEIEYTPNGYVWIDIDIEPPSAGGSAGGSAGG [r11_304_TrROS]” the “folding stability dG unfold” value [1] was 1.35 ± 0.099 kcal/mol, the “folding stability dG unfold” value [2] was 1.49 ± 0.11 kcal/mol and the “folding stability dG unfold” value [3] was 1.06 ± 0.045 kcal/mol.
In the case of “SAGGSAGGSAGGMVIRLEDGRTLVFETREEAEEAAKALAEELGLKEVKVEIVEVPLEELPSAGGSAGGSAGG [r7_839_TrROS_Hall]”, the “folding stability dG unfold” value [1] is reported as 2.4 ± 0.045 kcal/mol, the “folding stability dG unfold” value [2] is reported as 2.6 ± 0.032 kcal/mol and the “folding stability dG unfold” value [3] is reported as 2.11 ± 0.073 kcal/mol.
For “SAGGSAGGSPETLTITVKEKPVRIEINGKVIEVKPGDTITIPKELANNIRIEVNEDGSITITPSAGGSAGGS [r20_150_TrROS_Hall]”, the “folding stability dG unfold” value [1] was 1.6 ± 0.19 kcal/mol, the “folding stability dG unfold” value [2] was 1.24 ± 0.11 kcal/mol and the “folding stability dG unfold” value [3] was 1.92 ± 0.2 kcal/mol.
For “SMPEILDVREDPDAPGALTFRVKLPDGEATVVIPYDPETGTFTAVRYYPDGEEVREFDSFEDALEAILEDSA [r9_366_TrMRF]”, the “folding stability dG unfold” value [1] was 1.49 ± 0.053 kcal/mol, the “folding stability dG unfold” value [2] was 1.46 ± 0.051 kcal/mol and the “folding stability dG unfold” value [3] was 1.45 ± 0.019 kcal/mol.
For “SAGGSAGGSAGGGMSTAVLKIDDKWVPVRIYPDSVVIEYPDGSTKTISLSEIPENLIELPSAGGSAGGSAGG [r7_748_JUSTAS]”, the “folding stability dG unfold” value [1] was 1.43 ± 0.15 kcal/mol, the “folding stability dG unfold” value [2] was 0.547 ± 0.07 kcal/mol and the “folding stability dG unfold” value [3] was 2.2 ± 0.12 kcal/mol.
In the case of “SAGGSAGGSKKKLKLVIKLKKGEKAPTAEELKKKLEELGFEIKDIKVVEKDGELYVVLEIELKSAGGSAGGS [r12_1052_TrROS_Hall]”, the “folding stability dG unfold” value [1] is reported as 3.24 ± 0.32 kcal/mol, the “folding stability dG unfold” value [2] is reported as 3.4 ± 0.14 kcal/mol and the “folding stability dG unfold” value [3] is reported as 2.67 ± 0.35 kcal/mol.
With “SAGGSAGGMIKITITVPPGVSPEFVREKIAPLGVEVLSVEPLPDGTHRVTIEIPPEITKNPELLSAGGSAGG [r6_470_JUSTAS]” the “folding stability dG unfold” value [1] was 1.42 ± 0.044 kcal/mol, the “folding stability dG unfold” value [2] was 1.18 ± 0.023 kcal/mol and the “folding stability dG unfold” value [3] was 1.68 ± 0.051 kcal/mol.
With “SAGGMIKITVTLPDPARVRALFAELGLDVEVTPLPDGSVEIYLPEEYKEKVVEALPEEEVEITPVPPLSAGG [r13_261_JUSTAS]” the “folding stability dG unfold” value [1] was 2.91 ± 0.14 kcal/mol, the “folding stability dG unfold” value [2] was 3.05 ± 0.17 kcal/mol and the “folding stability dG unfold” value [3] was 2.5 ± 0.13 kcal/mol.
In the case of “SAGGSAGGSAEVFIVKFSDPAKLKAFMEKLGLSYEKGDNPKITNPEEFLKNLPLVKNVVVTKKSAGGSAGGS [r12_571_JUSTAS]”, the “folding stability dG unfold” value [1] is reported as 0.423 ± 0.057 kcal/mol, the “folding stability dG unfold” value [2] is reported as 0.54 ± 0.14 kcal/mol and the “folding stability dG unfold” value [3] is reported as 0.286 ± 0.12 kcal/mol.
In the case of “SAGGSAGGSAGGELKLLRIEVTGRAPYPTELLKTVEIVLPNEDVTEEQIRELLKELGIELSAGGSAGGSAGG [r7_903_TrMRF]”, the “folding stability dG unfold” value [1] is reported as 0.0188 ± 0.19 kcal/mol, the “folding stability dG unfold” value [2] is reported as -0.505 ± 0.26 kcal/mol and the “folding stability dG unfold” value [3] is reported as 0.226 ± 0.046 kcal/mol.
In the case of “SPVSLSFTTAPSGLPTVTSASQPADGSLLLTLTEPATGATTTLTLPPGLPPGVERTVTLPGPDGATTLTVGS [r1_43_JUSTAS]”, the “folding stability dG unfold” value [1] is reported as 0.364 ± 0.073 kcal/mol, the “folding stability dG unfold” value [2] is reported as 0.723 ± 0.11 kcal/mol and the “folding stability dG unfold” value [3] is reported as -0.678 ± 0.19 kcal/mol.
In the case of “SAMKTEVIEFENFTIVVEELPDGSKKIIILFENPEKAKEALEKNPWIKEFIAEAEKEGYDVELAVVEPESAG [r14_873_TrMRF]”, the “folding stability dG unfold” value [1] is reported as 3.21 ± 0.085 kcal/mol, the “folding stability dG unfold” value [2] is reported as 3.31 ± 0.042 kcal/mol and the “folding stability dG unfold” value [3] is reported as 3.21 ± 0.12 kcal/mol.
For “SAGGSAGGSAGGSMTLKVTLTPPSGEVVEFEITEEELDKLKEELPEDWSISTEPIPELESAGGSAGGSAGGS [r4_63_JUSTAS]”, the “folding stability dG unfold” value [1] was 2.29 ± 0.051 kcal/mol, the “folding stability dG unfold” value [2] was 2.132 ± 0.016 kcal/mol and the “folding stability dG unfold” value [3] was 2.43 ± 0.07 kcal/mol.
In the case of “GMTVTHTAEAGGRPLTITVTRSPDGWEVTVTDPDGTPIFSKTIPSDKNATLTLTDSAGNPLVTVNITLPPES [r1_34_JUSTAS]”, the “folding stability dG unfold” value [1] is reported as 3.91 ± 0.051 kcal/mol, the “folding stability dG unfold” value [2] is reported as 3.8 ± 0.046 kcal/mol and the “folding stability dG unfold” value [3] is reported as 4.15 ± 0.11 kcal/mol.
With “SAGGSAGGSMKITVEKDENGNYRVTVTLTVNGKEIKLTVTVPKNTTPEEVKKKAEELAKELLKSAGGSAGGS [r12_69_TrROS_Hall]” the “folding stability dG unfold” value [1] was > 6 kcal/mol, the “folding stability dG unfold” value [2] was 5.13 ± 0.44 kcal/mol and the “folding stability dG unfold” value [3] was 4.39 ± 0.55 kcal/mol.
In the case of “SAGGSAGGSAGGEVIEIELPGKTKEEIEEAIKKLPENYKIEIKKDENGRIRVRIFRKEDLSAGGSAGGSAGG [r7_662_TrROS_Hall]”, the “folding stability dG unfold” value [1] is reported as 1.44 ± 0.42 kcal/mol, the “folding stability dG unfold” value [2] is reported as 1.5 ± 0.17 kcal/mol and the “folding stability dG unfold” value [3] is reported as 1.6 ± 0.15 kcal/mol.
For “SAGGKKKKKKPKIVRVKITLKNENGEEIEIDEAVILPDGTILIRDKKTGKIFEIKLDDITKIEIEEVSAGGS [r8_410_TrROS_Hall]”, the “folding stability dG unfold” value [1] was 2.8 ± 0.17 kcal/mol, the “folding stability dG unfold” value [2] was 3.02 ± 0.098 kcal/mol and the “folding stability dG unfold” value [3] was 1.99 ± 0.086 kcal/mol.
In the case of “AFTITGIEVTYDPATNTVTVTATVTGPDGSTATVTLTLTLPAPPPPVTTVTRTETRTLPDGTTVTVTETFTS [r1_125_TrROS_Hall]”, the “folding stability dG unfold” value [1] is reported as 3.43 ± 0.13 kcal/mol, the “folding stability dG unfold” value [2] is reported as 4.09 ± 0.048 kcal/mol and the “folding stability dG unfold” value [3] is reported as 2.21 ± 0.037 kcal/mol.
